± gives the standard deviation of the averaged measurements.
What was measured:
Saccharomyces cerevisiae [1] = assay: protein stability index of tFT-peptide fusion (C-terminal peptide) (PSI (0-1 scale)); higher = more stable (slower turnover)
Description: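 MPS profiling in S. cerevisiae of the tFT-X12 degron library: putative degron peptides plus stable controls, 12 aa, fused to the C-terminus of a sfGFP-mCherry timer. Cells are FACS-sorted into 8 mCherry/sfGFP bins and deep-sequenced. PSI runs from 0 (unstable) to 1 (stable). Backgrounds are wild type, das1Δ and doa10Δ at 30 °C, and wild type, das1Δ, cdc34-1 and cdc53-1 at 37 °C; 2-3 technical replicates each.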

Saccharomyces cerevisiae [2] = assay: as above; details: genetic background: wild type; temperature: 30 C
[3] = genetic background: cdc34-1, temperature: 37 C
[4] = genetic background: cdc53-1, temperature: 37 C
[5] = genetic background: das1 deletion, temperature: 30 C
[6] = genetic background: das1 deletion, temperature: 37 C
[7] = genetic background: doa10 deletion, temperature: 30 C
[8] = genetic background: wild type, temperature: 30 C
[9] = genetic background: wild type, temperature: 37 C
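Further: PSI is a weighted mean of sequencing reads over stability bins, variants kept only with over 10 reads, mCherry proximal and sfGFP distal, peptide attached via GGGS linker.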

Sequence	protein stability index (Saccharomyces cerevisiae [1]; [3])	protein stability index (Saccharomyces cerevisiae [1]; [4])	protein stability index (Saccharomyces cerevisiae [1]; [5])	protein stability index (Saccharomyces cerevisiae [1]; [6])	protein stability index (Saccharomyces cerevisiae [1]; [7])	protein stability index (Saccharomyces cerevisiae [1]; [8])	protein stability index (Saccharomyces cerevisiae [1]; [9])	protein stability index (Saccharomyces cerevisiae [2])
RSPVVVFAVLLF	0.438 ± 0.072	0.481 ± 0.034	0.341 ± 0.036	0.524 ± 0.016	0.35 ± 0.037	0.35 ± 0.029	0.505 ± 0.0057	0.423 ± 0.018
RSRCVRAAVKVG	0.612 ± 0.036	0.659 ± 0.025	0.569 ± 0.043	0.70656 ± 0.00048	0.177 ± 0.0018	0.216 ± 0.023	0.427 ± 0.026	0.324 ± 0.0059
RSRRNRYSRKIA	0.506 ± 0.024	0.659 ± 0.031	0.696 ± 0.043	0.6959 ± 0.0048	0.0765 ± 0.034	0.0787 ± 0.024	0.141 ± 0.03	0.184 ± 0.013
RSWLCFIVFGLF	0.368 ± 0.027	0.413 ± 0.03	0.317 ± 0.03	0.485 ± 0.015	0.238 ± 0.0067	0.234 ± 0.014	0.347 ± 0.011	0.313 ± 0.011
RTSRPVRLFRIH	0.753 ± 0.031	0.83846 ± 4.9e-05	0.656 ± 0.022	0.78 ± 0.009	0.26 ± 0.051	0.279 ± 0.046	0.448 ± 0.0097	0.402 ± 0.06
RVCWLRAFGFLV	0.666 ± 0.033	0.718 ± 0.019	0.587 ± 0.022	0.724 ± 0.024	0.258 ± 0.015	0.29 ± 0.051	0.57118 ± 0.00039	0.305 ± 0.028
RVGALLAVTCPA	0.435 ± 0.035	0.47214 ± 0.00033	0.308 ± 0.025	0.5127 ± 0.0033	0.262 ± 0.0067	0.302 ± 0.036	0.4766 ± 0.0026	0.446 ± 0.0093
RVLILCLFFRWS	0.2532 ± 0.00072	0.404 ± 0.0096	0.274 ± 0.033	0.435 ± 0.0084	0.257 ± 0.0049	0.279 ± 0.029	0.397 ± 0.016	0.347 ± 0.18
RVVILFVFLVYV	0.269 ± 0.013	0.342 ± 0.0015	0.258 ± 0.037	0.376 ± 0.0065	0.2526 ± 0.0011	0.25 ± 0.018	0.365 ± 0.014	0.3235 ± 0.0031
RWCLWGTRVWVS	0.439 ± 0.04	0.522 ± 0.037	0.444 ± 0.021	0.591 ± 0.029	0.103 ± 0.0031	0.111 ± 0.022	0.153 ± 0.03	0.147 ± 0.028
RWELASKCRLCV	0.563 ± 0.0077	0.6716 ± 0.0053	0.563 ± 0.021	0.7123 ± 0.0068	0.148 ± 0.011	0.16 ± 0.029	0.304 ± 0.061	0.296 ± 0.04
RWRDGVAWVVVC	0.254 ± 0.011	0.314 ± 0.024	0.289 ± 0.032	0.452 ± 0.0084	0.0897 ± 0.019	0.098 ± 0.0042	0.0954 ± 0.0098	0.143 ± 0.025
SAWGQAFWCQMG	0.712 ± 0.027	0.7859 ± 0.0057	0.648 ± 0.019	0.764 ± 0.016	0.233 ± 0.016	0.265 ± 0.014	0.555 ± 0.025	0.4071 ± 0.00098
SCCGCGFGLLFC	0.731 ± 0.011	0.807 ± 0.0017	0.631 ± 0.023	0.7812 ± 0.0002	0.643 ± 0.032	0.632 ± 0.016	0.7399 ± 0.0056	0.73 ± 0.018
SCCIYVALCRWL	0.473 ± 0.024	0.573 ± 0.0093	0.43 ± 0.024	0.5601 ± 0.0013	0.323 ± 0.0071	0.353 ± 0.035	0.48 ± 0.0084	0.382 ± 0.016
SCGVYVVFVLVE	0.0658 ± 0.027	0.133 ± 0.047	0.16 ± 0.042	0.294 ± 0.006	0.128 ± 0.026	0.152 ± 0.022	0.246 ± 0.0014	0.286 ± 0.16
SCIVRTLVPCPS	0.377 ± 0.0049	0.419 ± 0.034	0.253 ± 0.04	0.4761 ± 0.0022	0.224 ± 0.016	0.27 ± 0.029	0.445 ± 0.0094	0.373 ± 0.022
SFCVLLQFCVLV	0.412 ± 0.0095	0.432 ± 0.0084	0.351 ± 0.021	0.461 ± 0.011	0.336 ± 0.0041	0.3381 ± 0.0012	0.4258 ± 0.0029	0.0186 ± 0.026
SFFCTRVLWVFQ	0.534 ± 0.017	0.612 ± 0.025	0.539 ± 0.022	0.6285 ± 0.0029	0.0925 ± 0.004	0.0846 ± 0.027	0.149 ± 0.029	0.157 ± 0.023
SFHTFFCPFFIL	0.53 ± 0.051	0.6678 ± 0.0037	0.645 ± 0.038	0.713 ± 0.032	0.189 ± 0.0043	0.168 ± 0.023	0.288 ± 0.022	0.205 ± 0.024

Sequence	protein stability index (Saccharomyces cerevisiae [1]; [3])	protein stability index (Saccharomyces cerevisiae [1]; [4])	protein stability index (Saccharomyces cerevisiae [1]; [5])	protein stability index (Saccharomyces cerevisiae [1]; [6])	protein stability index (Saccharomyces cerevisiae [1]; [7])	protein stability index (Saccharomyces cerevisiae [1]; [8])	protein stability index (Saccharomyces cerevisiae [1]; [9])	protein stability index (Saccharomyces cerevisiae [2])
SGPNASRFYAPI	0.672 ± 0.04	0.733 ± 0.0081	0.634 ± 0.013	0.72486 ± 8.5e-06	0.657 ± 0.034	0.656 ± 0.037	0.704 ± 0.011	0.696 ± 0.041
SHPFIRSLVFLA	0.43 ± 0.015	0.6729 ± 0.0026	0.629 ± 0.008	0.721 ± 0.02	0.0816 ± 0.008	0.0711 ± 0.0057	0.0908 ± 0.014	0.103 ± 0.037
SHWSMQATLQLV	0.617 ± 0.046	0.694 ± 0.025	0.568 ± 0.021	0.6866 ± 0.0046	0.443 ± 0.034	0.468 ± 0.011	0.601 ± 0.012	0.469 ± 0.016
SIFFLVPLVFLS	0.4422 ± 0.0014	0.532 ± 0.027	0.408 ± 0.035	0.584 ± 0.015	0.134 ± 0.0055	0.141 ± 0.019	0.216 ± 0.055	0.214 ± 0.043
SIPVWTIELFAT	0.555 ± 0.022	0.627 ± 0.012	0.428 ± 0.026	0.6153 ± 0.0042	0.335 ± 0.022	0.368 ± 0.035	0.537 ± 0.039	0.469 ± 0.037
SLEACYCFVVLV	0.187 ± 0.0034	0.199 ± 0.0087	0.214 ± 0.028	0.291 ± 0.0068	0.175 ± 0.019	0.186 ± 0.023	0.25 ± 0.015	0.2744 ± 0.00036
SLFDQDCGGTVW	0.756 ± 0.034	0.78 ± 0.013	0.686 ± 0.016	0.784 ± 0.014	0.655 ± 0.014	0.6706 ± 0.0058	0.804 ± 0.016	0.764 ± 0.027
SLIFRVGKFKSL	0.5892 ± 0.0014	0.6968 ± 0.0048	0.654 ± 0.019	0.738 ± 0.012	0.0628 ± 0.011	0.0746 ± 0.017	0.101 ± 0.0098	0.137 ± 0.021
SLLLLSLCRFVG	0.626 ± 0.022	0.686 ± 0.017	0.6 ± 0.012	0.702 ± 0.023	0.194 ± 0.02	0.232 ± 0.036	0.384 ± 0.013	0.372 ± 0.026
SLPIFSGVASVR	0.677 ± 0.014	0.737 ± 0.033	0.64 ± 0.028	0.778 ± 0.0013	0.642 ± 0.043	0.649 ± 0.035	0.728 ± 0.011	0.694 ± 0.022
SLSCYSFFVLAL	0.513 ± 0.035	0.543 ± 0.027	0.404 ± 0.03	0.534 ± 0.0054	0.391 ± 0.014	0.401 ± 0.025	0.51315 ± 0.00015	0.482 ± 0.0072
SLVIVLPALIFL	0.463 ± 0.026	0.545 ± 0.013	0.393 ± 0.013	0.569 ± 0.014	0.408 ± 0.0052	0.401 ± 0.024	0.522 ± 0.014	0.467 ± 0.035
SPAIRAILAPAG	0.476 ± 0.059	0.504 ± 0.013	0.404 ± 0.021	0.546 ± 0.0073	0.402 ± 0.014	0.43 ± 0.036	0.532 ± 0.0079	0.445 ± 0.034
SPLASLRFWCFC	0.68 ± 0.059	0.768 ± 0.0088	0.6502 ± 0.0037	0.778 ± 0.018	0.335 ± 0.01	0.349 ± 0.028	0.592 ± 0.024	0.437 ± 0.015
SPPPLFLIVLHL	0.495 ± 0.0063	0.562 ± 0.028	0.446 ± 0.021	0.639 ± 0.012	0.4 ± 0.021	0.371 ± 0.048	0.52 ± 0.018	0.4283 ± 0.0032
SRCLALVICYRV	0.539 ± 0.041	0.582 ± 0.031	0.439 ± 0.021	0.5979 ± 0.0043	0.152 ± 0.016	0.185 ± 0.024	0.3 ± 0.0041	0.265 ± 0.011
SRGKMTIVSNQI	0.6525 ± 0.00094	0.734 ± 0.011	0.652 ± 0.021	0.7389 ± 0.0072	0.642 ± 0.011	0.669 ± 0.016	0.704 ± 0.028	0.574 ± 0.15
SRGLVPMANRYC	0.659 ± 0.07	0.7383 ± 0.0028	0.656 ± 0.03	0.741 ± 0.018	0.142 ± 0.0075	0.16 ± 0.02	0.42 ± 0.014	0.298 ± 0.045
SRPGRWRLYYVS	0.6867 ± 0.0067	0.802 ± 0.016	0.679 ± 0.0079	0.758 ± 0.011	0.38 ± 0.023	0.383 ± 0.022	0.54 ± 0.0037	0.401 ± 0.098
